Results on two molecules are retold here after PMC9896810, “Crk proteins activate the Rap1 guanine nucleotide exchange factor C3G by segregated adaptor-dependent and -independent mechanisms” (Cell Communication and Signaling : CCS, 2023).

Assay [1] concerns the target T1, C3G-AAPA-Y554H (human, UniProt Q13905-1 4-1077, P283A | P284A | L286 | P287 | P289A | P453A | P454A | L456A | P457A | K459A | …).
T1 construct: human C3G isoform a, residues 4-1077; source: E. coli BL21 (DE3), purified (IMAC, TEV digestion, reversed IMAC, SEC); not shown: His, N-terminal, cleaved; Halo, N-terminal, cleaved
T1 sequence (looked up): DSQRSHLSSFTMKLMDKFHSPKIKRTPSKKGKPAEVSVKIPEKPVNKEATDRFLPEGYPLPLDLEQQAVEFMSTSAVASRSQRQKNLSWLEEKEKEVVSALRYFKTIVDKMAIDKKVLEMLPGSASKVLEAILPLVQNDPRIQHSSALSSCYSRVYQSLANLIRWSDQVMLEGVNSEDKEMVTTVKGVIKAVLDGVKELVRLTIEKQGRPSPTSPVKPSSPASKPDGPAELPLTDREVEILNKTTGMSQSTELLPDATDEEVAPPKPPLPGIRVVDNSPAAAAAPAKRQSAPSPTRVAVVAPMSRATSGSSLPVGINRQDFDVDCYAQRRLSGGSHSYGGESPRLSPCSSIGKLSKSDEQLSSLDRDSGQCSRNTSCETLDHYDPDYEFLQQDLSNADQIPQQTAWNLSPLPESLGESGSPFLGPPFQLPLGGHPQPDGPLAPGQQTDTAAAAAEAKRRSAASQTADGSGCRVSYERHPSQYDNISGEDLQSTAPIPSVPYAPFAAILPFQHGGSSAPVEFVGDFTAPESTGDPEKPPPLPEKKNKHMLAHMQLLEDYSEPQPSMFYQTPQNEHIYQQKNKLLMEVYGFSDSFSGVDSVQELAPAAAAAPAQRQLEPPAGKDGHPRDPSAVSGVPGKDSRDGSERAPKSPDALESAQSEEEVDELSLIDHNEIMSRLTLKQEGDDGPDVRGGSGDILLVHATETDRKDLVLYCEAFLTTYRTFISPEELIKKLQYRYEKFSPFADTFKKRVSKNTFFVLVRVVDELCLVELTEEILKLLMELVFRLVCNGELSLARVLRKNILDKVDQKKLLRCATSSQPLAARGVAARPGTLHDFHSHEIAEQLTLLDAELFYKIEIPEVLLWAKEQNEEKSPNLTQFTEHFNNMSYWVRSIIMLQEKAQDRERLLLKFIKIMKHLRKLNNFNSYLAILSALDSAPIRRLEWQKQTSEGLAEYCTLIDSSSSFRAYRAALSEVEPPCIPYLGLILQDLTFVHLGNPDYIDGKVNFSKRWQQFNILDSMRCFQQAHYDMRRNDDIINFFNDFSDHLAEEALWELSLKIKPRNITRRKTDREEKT
Kind of assay: ITC; single-PRM mutant of C3G in the cell titrated with CrkL or CrkL-SH3N, 25 °C, 300 mM NaCl, pH 7.5; SEDPHAT, 1:1 heteroassociation model; N is the competent fraction of C3G. The following applies: both partners purified. In general terms: Isothermal titration calorimetry measures the heat released or taken up as one component is titrated into another.

Assay [2] addresses T2, C3G-PAAA (human, UniProt Q13905-1 4-1077, P453A | P454A | L456A | P457A | K459A | P540A | P541A | L543A | P544A | K546A | …).
T2 construct: human C3G isoform a, residues 4-1077; only P1 kept, P2, P3 and P4 mutated to Ala; source: E. coli BL21 (DE3), purified (IMAC, TEV digestion, reversed IMAC, SEC); not shown: His, N-terminal, cleaved; Halo, N-terminal, cleaved
T2 sequence (looked up): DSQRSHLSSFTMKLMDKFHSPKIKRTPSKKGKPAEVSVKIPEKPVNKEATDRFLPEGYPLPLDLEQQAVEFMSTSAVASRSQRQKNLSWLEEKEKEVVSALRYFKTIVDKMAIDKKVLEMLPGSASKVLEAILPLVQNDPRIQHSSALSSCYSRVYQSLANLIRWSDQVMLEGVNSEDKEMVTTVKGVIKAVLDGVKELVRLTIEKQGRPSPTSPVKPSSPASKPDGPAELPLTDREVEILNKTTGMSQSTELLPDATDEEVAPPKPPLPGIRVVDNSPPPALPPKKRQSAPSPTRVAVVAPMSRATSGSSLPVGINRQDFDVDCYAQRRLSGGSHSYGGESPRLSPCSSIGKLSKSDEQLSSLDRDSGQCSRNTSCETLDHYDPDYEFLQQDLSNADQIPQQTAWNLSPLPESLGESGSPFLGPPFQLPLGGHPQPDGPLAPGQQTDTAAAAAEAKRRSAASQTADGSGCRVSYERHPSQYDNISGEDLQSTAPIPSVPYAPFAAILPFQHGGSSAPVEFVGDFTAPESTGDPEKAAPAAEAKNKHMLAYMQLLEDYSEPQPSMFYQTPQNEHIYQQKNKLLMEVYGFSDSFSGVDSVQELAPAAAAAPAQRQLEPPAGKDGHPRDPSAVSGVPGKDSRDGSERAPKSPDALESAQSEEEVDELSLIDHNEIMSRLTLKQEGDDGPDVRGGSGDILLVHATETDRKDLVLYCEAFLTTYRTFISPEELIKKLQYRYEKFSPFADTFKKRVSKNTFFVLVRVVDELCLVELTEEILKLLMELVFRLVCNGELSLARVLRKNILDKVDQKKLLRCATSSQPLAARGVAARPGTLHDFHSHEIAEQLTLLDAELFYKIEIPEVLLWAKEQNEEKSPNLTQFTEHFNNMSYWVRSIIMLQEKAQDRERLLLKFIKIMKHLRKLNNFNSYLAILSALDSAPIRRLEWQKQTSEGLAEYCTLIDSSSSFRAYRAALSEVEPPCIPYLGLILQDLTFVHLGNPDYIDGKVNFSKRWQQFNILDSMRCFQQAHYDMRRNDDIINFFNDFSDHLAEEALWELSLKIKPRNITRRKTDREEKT
Described as above. The following applies: both partners purified.

B1: CrkL-SH3N (domain or fragment, human, UniProt P46109 125-182, looked up)
chain: LEYVRTLYDFPGNDAEDLPFKKGEILVIIEKPEEQWWSARNKDGRVGMIPVPYVEKLV
notes: human CrkL, SH3N domain, residues 125-182, in pETEV15b; source: E. coli BL21 (DE3), purified (IMAC, TEV digestion, SEC); not shown: His, N-terminal, cleaved
As usually defined, the stoichiometry N is a count of units in the complex or per binding partner. Take B1: the “stoichiometry N” value in assay [1] turned out to be 0.47.

B2: CrkL (full-length) (natural protein, human, UniProt P46109 1-303, looked up)
chain: MSSARFDSSDRSAWYMGPVSRQEAQTRLQGQRHGMFLVRDSSTCPGDYVLSVSENSRVSHYIINSLPNRRFKIGDQEFDHLPALLEFYKIHYLDTTTLIEPAPRYPSPPMGSVSAPNLPTAEDNLEYVRTLYDFPGNDAEDLPFKKGEILVIIEKPEEQWWSARNKDGRVGMIPVPYVEKLVRSSPHGKHGNRNSNSYGIPEPAHAYAQPQTTTPLPAVSGSPGAAITPLPSTQNGPVFAKAIQKRVPCAYDKTALALEVGDIVKVTRMNINGQWEGEVNGRKGLFPFTHVKIFDPQNPDENE
notes: human CrkL, residues 1-303, in pETEV15b; also called Crk-like protein; source: E. coli BL21 (DE3), purified (IMAC, TEV digestion, SEC); not shown: His, N-terminal, cleaved
The term Kd denotes the free concentration of one partner at which half of the binding sites on the other are occupied at equilibrium, for simple one-to-one binding. B2: in assay [2], the dissociation constant (Kd) was determined as 900 nM and the “stoichiometry N” value was found to be 0.86.
